Measurements taken from US20260193348A1 (ANTENGENE BIOLOGICS, published 2026).
Where a chain is given by its changes, count along the chain named. Names may count otherwise.

B1: Bis-40E9-L2H3-D99E.H (bispecific antibody)
VH: EVQLVQSGAEVKKPGASVKVSCKASGYTFTSYVIHWVRQAPGQGLEWMGYFNPYNDGTKYNEEFKGRVTLTSDKSTSTAYMELRSLRSDDTAVYYCARGGVRRYFDVWGQGTTVTVSS
VL: DIQMTQSPSSLSASVGDRVTITCRASQDIGSNLNWLQQKPGKAIKRLIYATFGLDSGVPSRFSGSRSGTDFTLTISSLQPEDFATYYCQQYASFPYTFGGGTKVEIK
scFv: EVQLVQSGAEVKKPGSSVKVSCKASGYTFSSYVIHWVRQAPGQCLEWMGYINPYNDVIKYNEKFKGRVTLTSDKSTSTAYMELSSLRSEDTAVYYCARESYYSYDGFAYWGQGTLVTVSSGGGGSGGGGSGGGGSGGGGSEIVLTQSPDFQSVTPKEKVTITCSASSSVSYMHWYQQKPDQSPKRLIYDTSKLASGVPSRFSGSGSGTDFTLTINSLEAEDAATYYCQQWSSNPPTFGCGTKVEIK
notes: L234A/L235A
B2: Bis-40E9-L2H3-G106A.H (bispecific antibody)
VH: B1 VH
VL: B1 VL
scFv: B1 scFv with E99D, G106A
notes: L234A/L235A
B3: Bis-40E9-L3H1 (bispecific antibody)
VH: B1 VH
VL: B1 VL
scFv: B1 scFv with Y27G, L70I, S72A, E99D, L186W, F210Y
notes: L234A/L235A
B4: Bis-40E9-L2H3-D56G.H (bispecific antibody)
VH: B1 VH
VL: B1 VL
scFv: B1 scFv with D56G, E99D
notes: L234A/L235A
B5: Bis-40E9-L2H4 (bispecific antibody)
VH: B1 VH
VL: B1 VL
scFv: B1 scFv with M48I, V68A, E99D
notes: L234A/L235A
B6: Bis-40E9-L2H1 (bispecific antibody)
VH: B1 VH
VL: B1 VL
scFv: B1 scFv with Y27G, L70I, S72A, E99D
notes: Fab-scFv-Fab (2+1): two humanized anti-GPRC5D Fabs and one anti-CD3 scFv (VH-(GGGGS)4-VL) joined by (GGGGS)2 linkers to CH1 of one Fab and to CH2; L234A/L235A

target: T1, CD3 on T cells / Jurkat cells (human, UniProt P07766 23-207; P04234 22-171; P09693 23-182); test: FACS on Jurkat cells
T1 construct: whole, on cells; Native CD3 complex on CD3+ T cells isolated from normal donors or on Jurkat cells; also called human CD3; CD3+ T cells
T1 sequence (P07766 23-207, chain 1 of 3): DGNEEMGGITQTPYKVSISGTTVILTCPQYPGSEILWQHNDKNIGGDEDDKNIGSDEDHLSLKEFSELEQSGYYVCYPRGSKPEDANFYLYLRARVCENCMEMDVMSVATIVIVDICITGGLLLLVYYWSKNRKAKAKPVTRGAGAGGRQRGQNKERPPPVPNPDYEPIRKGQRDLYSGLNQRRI
T1 sequence (P04234 22-171, chain 2 of 3): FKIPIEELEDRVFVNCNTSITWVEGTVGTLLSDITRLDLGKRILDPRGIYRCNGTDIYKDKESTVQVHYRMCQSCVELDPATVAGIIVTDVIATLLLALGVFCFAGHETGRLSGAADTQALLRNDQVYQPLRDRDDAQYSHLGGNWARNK
T1 sequence (P09693 23-182, chain 3 of 3): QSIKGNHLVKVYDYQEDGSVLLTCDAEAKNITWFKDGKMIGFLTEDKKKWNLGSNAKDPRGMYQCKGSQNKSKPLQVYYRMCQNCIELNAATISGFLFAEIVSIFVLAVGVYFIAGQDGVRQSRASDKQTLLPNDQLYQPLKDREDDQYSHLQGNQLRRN

Row | Binder | binding result
1 | B1 | binds
2 | B2 | binds
3 | B3 | binds
4 | B4 | binds
5 | B5 | binds
6 | B6 | binds
